Source: publication PMC2808462 (Biochemistry, 2010)

Biological target: the molecule itself
Assay: AUC

B1: human progesterone receptor B-isoform (PR-B), residues 1-933 (natural protein, UniProt P06401 1-933, looked up)
chain: MTELKAKGPRAPHVAGGPPSPEVGSPLLCRPAAGPFPGSQTSDTLPEVSAIPISLDGLLFPRPCQGQDPSDEKTQDQQSLSDVEGAYSRAEATRGAGGSSSSPPEKDSGLLDSVLDTLLAPSGPGQSQPSPPACEVTSSWCLFGPELPEDPPAAPATQRVLSPLMSRSGCKVGDSSGTAAAHKVLPRGLSPARQLLLPASESPHWSGAPVKPSPQAAAVEVEEEDGSESEESAGPLLKGKPRALGGAAAGGGAAAVPPGAAAGGVALVPKEDSRFSAPRVALVEQDAPMAPGRSPLATTVMDFIHVPILPLNHALLAARTRQLLEDESYDGGAGAASAFAPPRSSPCASSTPVAVGDFPDCAYPPDAEPKDDAYPLYSDFQPPALKIKEEEEGAEASARSPRSYLVAGANPAAFPDFPLGPPPPLPPRATPSRPGEAAVTAAPASASVSSASSSGSTLECILYKAEGAPPQQGPFAPPPCKAPGASGCLLPRDGLPSTSASAAAAGAAPALYPALGLNGLPQLGYQAAVLKEGLPQVYPPYLNYLRPDSEASQSPQYSFESLPQKICLICGDEASGCHYGVLTCGSCKVFFKRAMEGQHNYLCAGRNDCIVDKIRRKNCPACRLRKCCQAGMVLGGRKFKKFNKVRVVRALDAVALPQPVGVPNESQALSQRFTFSPGQDIQLIPPLINLLMSIEPDVIYAGHDNTKPDTSSSLLTSLNQLGERQLLSVVKWSKSLPGFRNLHIDDQITLIQYSWMSLMVFGLGWRSYKHVSGQMLYFAPDLILNEQRMKESSFYSLCLTMWQIPQEFVKLQVSQEEFLCMKVLLLLNTIPLEGLRSQTQFEEMRSSYIRELIKAIGLRQKGVVSSSQRFYQLTKLLDNLHDLVKQLHLYCLNTFIQSRALSVEFPEMMSEVIAAQLPKILAGMVKPLLFHKK
**Q.** B1 was tested. Which “stoichiometry N” value did it give?
**A.** Its value is 2.
